Experimental findings from patent US20140378382A1 (WISCONSIN ALUMNI RESEARCH FOUNDATION, published 2014) are described below.

Common to all, as to assay: cell-based or functional assay
In test [1] the target is T1, PTHR-1 (species and cells not stated for the assay) (Homo sapiens (Human), UniProt Q03431 27-593).
T1 sequence: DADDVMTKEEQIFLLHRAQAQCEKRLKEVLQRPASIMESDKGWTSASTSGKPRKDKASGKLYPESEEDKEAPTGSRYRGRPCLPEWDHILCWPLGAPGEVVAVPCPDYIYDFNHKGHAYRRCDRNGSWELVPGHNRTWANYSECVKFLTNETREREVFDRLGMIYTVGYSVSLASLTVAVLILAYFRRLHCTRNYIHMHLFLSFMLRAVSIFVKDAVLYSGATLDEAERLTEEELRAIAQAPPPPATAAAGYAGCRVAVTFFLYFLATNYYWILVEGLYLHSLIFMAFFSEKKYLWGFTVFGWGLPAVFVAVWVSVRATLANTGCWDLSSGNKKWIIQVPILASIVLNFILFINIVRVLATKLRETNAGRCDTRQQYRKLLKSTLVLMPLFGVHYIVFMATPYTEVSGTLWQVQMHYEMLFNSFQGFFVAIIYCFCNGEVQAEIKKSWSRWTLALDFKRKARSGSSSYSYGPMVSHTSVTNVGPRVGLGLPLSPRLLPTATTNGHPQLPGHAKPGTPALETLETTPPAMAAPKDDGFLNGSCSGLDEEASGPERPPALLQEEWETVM

For test [2], the target named is T2, rat parathyroid hormone receptor 1, wild-type (rPTHR-1) (rat, UniProt P25961 27-591).
T2 sequence (looked up): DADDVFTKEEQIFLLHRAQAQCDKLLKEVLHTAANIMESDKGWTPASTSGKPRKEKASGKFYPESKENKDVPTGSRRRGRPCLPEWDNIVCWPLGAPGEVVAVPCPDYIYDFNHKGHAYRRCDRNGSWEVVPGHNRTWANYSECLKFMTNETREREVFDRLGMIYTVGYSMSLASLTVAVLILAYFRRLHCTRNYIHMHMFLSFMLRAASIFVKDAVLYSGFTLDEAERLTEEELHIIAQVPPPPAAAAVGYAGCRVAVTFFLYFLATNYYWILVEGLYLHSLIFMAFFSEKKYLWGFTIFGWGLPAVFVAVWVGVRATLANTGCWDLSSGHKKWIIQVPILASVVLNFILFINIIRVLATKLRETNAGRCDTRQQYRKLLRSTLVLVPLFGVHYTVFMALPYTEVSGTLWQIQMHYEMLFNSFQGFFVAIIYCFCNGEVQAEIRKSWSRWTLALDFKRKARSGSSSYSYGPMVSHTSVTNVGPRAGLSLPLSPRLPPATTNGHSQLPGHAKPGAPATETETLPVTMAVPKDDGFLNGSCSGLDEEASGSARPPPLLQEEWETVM

Test [3] has as its target T1, PTHR-1 (species and cells not stated …). The source holds these as a separate data set.
The target in the next test is T3, delNT PTHR1 (human, UniProt Q03431 27-593).
T3 sequence (looked up): T1 sequence

Like-named read-outs stand apart in the source and are kept apart here. Non-standard residues stand in square brackets, D forms with d. Primed or numbered codes have the meaning given here. No end group written: not given here. APC = aminopyrrolidine carboxylic acid (2-aminopyrrolidine-4-carboxylic acid); ACPC″ = 2-aminocyclopentane carboxylic acid (X); ACPC = 2-aminocyclopentane carboxylic acid; β3hW = N[C@H](CC(=O)O)Cc1c[nH]c2ccccc12; hArg = N=C(N)NCCCC[C@H](N)C(=O)O; β3hE = N[C@@H](CCC(=O)O)CC(=O)O; β3hF = N[C@H](CC(=O)O)Cc1ccccc1; β3hL = CC(C)C[C@H](N)CC(=O)O; β3hK = NCCCC[C@H](N)CC(=O)O; β3hM = CSCC[C@H](N)CC(=O)O; β3hD = NC(CC(=O)O)CC(=O)O; β3hS = N[C@@H](CO)CC(=O)O; Aib = CC(C)(N)C(=O)O

For the molecule [ACPC″]V[Aib]EIQ[ACPC″]MHQ[hArg]AK[β3hW]LNS[β3hM]RRV[β3hE]WLR[β3hK]KLQ[β3hD]VHN[β3hF]-NH2 (also: β3 residues (bold, underlined) not marked in the text) [M-D6_ACPC(1,7)], in test [1], the “Fold PTH” value worked out at 10.2 fold and the “cAMP EC50” value worked out at 0.83 nM.
With SVSEIQLMHNLGKHLNSMERVEWLRKKLQDVHNF-NH2 (also: five β3 residues, αααβ pattern, positions not given here) [C5], the “cAMP Max” value in test [2] worked out at 48 cps × 10-3.
Regarding [ACPC″]V[Aib]E[ACPC″]Q[ACPC″]MHQ[hArg]AKWLNSMRRVEWLRKKLQDVHNF-NH2 [M-ACPC(1,5,7)], in test [1], the “Fold PTH” value stood at 4.9 fold and the “cAMP EC50” value worked out at 0.4 nM.
For [ACPC″]V[Aib]EIQ[ACPC″]MHQ[hArg]AKWLNSMRRVEWLRKKLQDVHNF-NH2 [M-ACPC(1,7)], in that order: 6.3 fold and 0.52 nM.
Regarding SVSEIQLMHNLGKHLNSMERVEWLRKKLQDVHNF-NH2 (also: five β3 residues, αααβ pattern, positions not given here) [D5], the “cAMP Max” value in test [2] amounted to 43 cps × 10-3.
For SVSEIQLMHNLGK[ACPC]LNS[ACPC]ERV[APC]WLR[APC]KLQ[ACPC]VHN[ACPC]-NH2 (not fully specified; printed as SVSEIQLMHNLGKXLNSXERVZWLRZKLQXVHNX-NH2) [FcycD6], in test [3], the “Fold PTH” value was 3.2 fold and the “cAMP EC50” value worked out at 0.26 nM.

B1: D6_ACPC(1,5,7) (peptide)
peptide: [ACPC]VSE[ACPC]Q[ACPC]MHNLGKWLNSMERVEWLRKKLQDVHNF-NH2
modifications: not fully specified; printed as XVSEXQXMHNLGKWLNSMERVEWLRKKLQDVHNF-NH2; also: D6 β3 residues, positions not shown (marking lost)
With B1, in test [3], the “Fold PTH” value is 2040 fold and the “cAMP EC50” value was 167 nM.
For [ACPC]VSEIQ[ACPC]MHNLGKHLNSMERVEWLRKKLQDVHNF-NH2 [ACPC(1,7)] the same measures were 1.7 fold and 0.14 nM.

B2: D6_ACPC(1,7) (peptide)
peptide: [ACPC]VSEIQ[ACPC]MHNLGKWLNSMERVEWLRKKLQDVHNF-NH2
modifications: not fully specified; printed as XVSEIQXMHNLGKWLNSMERVEWLRKKLQDVHNF-NH2; also: D6 β3 residues, positions not shown (marking lost)
Take B2: in test [3], the “Fold PTH” value turned out to be 22.6 fold and the “cAMP EC50” value amounted to 1.84 nM.
For SVSEIQLMHNLGK[ACPC″]LNS[ACPC″]ERV[β3hE]WLR[APC]KLQ[β3hD]VHN[ACPC″]-NH2 (also: β3 residues (bold, underlined) not marked in the text) [cycD6] the same measures were 1.3 fold and 0.1 nM.
As to [ACPC″]V[Aib]E[ACPC″]Q[ACPC″]MHQ[hArg]AK[β3hW]LNS[β3hM]RRV[β3hE]WLR[β3hK]KLQ[β3hD]VHN[β3hF]-NH2 (also: β3 residues (bold, underlined) not marked in the text) [M-X1,5,7-D6], in test [1], the “Fold PTH” value is 9.7 fold and the “cAMP EC50” value turned out to be 0.79 nM.
For the molecule SVSEIQLMHNLGKHLNSMERVEWLRKKLQDVHNF-NH2 (also: three β3 residues, αααβ pattern, positions not given here) [C3], the “cAMP Max” value in test [2] came to 68 cps × 10-3.
Turning to SVSEIQL[β3hM]HNLGKHLNSMERVEWLRKKLQDVHNF-NH2 [β3Met(8) PTH(1-34)], the “cAMP EC50” value in the test with delNT PTHR1 was determined as 20000 nM.
Regarding AVAEIQ[ACPC″]MHQ[hArg]AKWLNSMRRVEWLRKKLQDVHNF-NH2 (not fully specified (residues 14, 18, 22, 26, 30, 34)) [M-D6], in test [1], the “Fold PTH” value is 5.4 fold and the “cAMP EC50” value came out at 0.44 nM.
On to SVSEIQLMHNLGKHLNSMERVEWLRKKLQDVHNF-NH2 (also: three β3 residues, αααβ pattern, positions not given here) [D3], for which the “cAMP Max” value in test [2] is 65 cps × 10-3.
As to SV[β3hS]EIQLMHNLGKHLNSMERVEWLRKKLQDVHNF-NH2 [β3Ser(3) PTH(1-34)], the “cAMP EC50” value with delNT PTHR1 came to 340000 nM.
Regarding [ACPC″]VSEIQ[ACPC″]MHNLGK[ACPC″]LNS[ACPC″]ERV[APC]WLR[APC]KLQ[ACPC″]VHN[ACPC″]-NH2 [FcycD6_ACPC(1,7)], in test [3], the “Fold PTH” value amounted to 8.7 fold and the “cAMP EC50” value came out at 0.71 nM.
As to SVSEIQ[β3hL]MHNLGKHLNSMERVEWLRKKLQDVHNF-NH2 [β3Leu(7) PTH(1-34)], the “cAMP EC50” value with delNT PTHR1 came out at 67000 nM.
For SVS[β3hE]IQLMHNLGKHLNSMERVEWLRKKLQDVHNF-NH2 [β3Glu(4) PTH(1-34)], in the test with delNT PTHR1, the “cAMP EC50” value was found to be 15000 nM.
AVAEIQ[ACPC″]MHQ[hArg]AK[ACPC″]LNS[ACPC″]RRV[APC]WLR[APC]KLQ[ACPC″]VHN[ACPC″]-NH2 [M-FcycD6]: in test [1], the “Fold PTH” value was determined as 6.3 fold and the “cAMP EC50” value was 0.51 nM.

B3: CycD6_ACPC(1,7) (peptide)
peptide: [ACPC]VSEIQ[ACPC]MHNLGK[ACPC]LNS[ACPC]ERVEWLR[APC]KLQDVHN[ACPC]-NH2
modifications: not fully specified; printed as XVSEIQXMHNLGKXLNSXERVEWLRZKLQDVHNX-NH2; also: further β3 residues, positions not shown (marking lost)
Consider B3, for which, in test [3], the “Fold PTH” value was 7.3 fold and the “cAMP EC50” value stood at 0.59 nM.
Turning to SVSEIQLMZNLGKHLNSMERVEWLRKKLQDVHNF (APC (Z) at 9; C-terminal amide) [APC(9) PTH(1-34)], in the test with delNT PTHR1, the “Fold PTH” value turned out to be 87 fold and the “cAMP EC50” value was found to be 5400 nM.
Regarding SVSEIQLMHNLGKHLNSMERVEWLRKKLQDVHNF-NH2 (not fully specified (residue 19)) [A5], the “cAMP Max” value in test [2] came out at 54 cps × 10-3.
For [ACPC″]V[Aib]EIQ[ACPC″]MHQ[hArg]AK[ACPC″]LNS[ACPC″]RRV[APC]WLR[APC]KLQ[ACPC″]VHN[ACPC″]-NH2 [M-FcycD6_ACPC(1,7)], in test [1], the “Fold PTH” value was determined as 21.8 fold and the “cAMP EC50” value was 1.77 nM.

B4: CycD6_ACPC(1,5,7) (peptide)
peptide: [ACPC]VSE[ACPC]Q[ACPC]MHNLGK[ACPC]LNS[ACPC]ERVEWLR[APC]KLQDVHN[ACPC]-NH2
modifications: not fully specified; printed as XVSEXQXMHNLGKXLNSXERVEWLRZKLQDVHNX-NH2; also: further β3 residues, positions not shown (marking lost)
On to B4, for which, in test [3], the “Fold PTH” value is 266 fold and the “cAMP EC50” value was determined as 21.7 nM.
SVS[ACPC]IQLMHNLGKHLNSMERVEWLRKKLQDVHNF-NH2 [ACPC(4) PTH(1-34)]: in the test with delNT PTHR1, the “Fold PTH” value turned out to be 510 fold and the “cAMP EC50” value was determined as 32000 nM.
